Three molecules from patent publication US20050100897A1, “NFAT transcription factors in tumor progression” (priority 2002, published 2005) can be followed below.

Assay type in all cases: cell-based, human
Experiment [1] relates to parental MDA-MB-435 β4-negative cells. The experiment is described as follows: Matrigel invasion assay, parental MDA-MB-435 cells. The note with it: transient transfection, parental MDA-MB-435 (no α6β4). On the procedure: (§1) FIGS. 5A-5B are graphs and immunoblots showing the effects of NFAT1 and NFAT5 over expression on transfected cells. Parental MDA-MB-435 β4-negative cells were transiently transfected with wild-type NFAT-1 (FIG. 5A) tagged with the HA epitope (NFAT-1) or with wild-type NFAT-5 (FIG. 5B) tagged with the myc epitope (NFAT-5) or control vector alone (vector). Following the transfection protocol, cells were assayed for their ability to migrate or to invade Matrigel. Relative migration/invasion were determined by comparing the amount of migration/invasion obtained from NFAT transfectants to that obtained from cells transfected with vector alone, which was assigned a value of 100%. An aliquot of transfected cells was lysed and nuclear extracts were resolved by SDS PAGE and immunoblotted with anti-HA or anti-myc. The data shown are mean values (±SEM) of 3 experiments performed in triplicate.
(§2) Invasion assays were performed using standard methods (see Shaw et al., Cell 91:949-960, 1997) using Transwell chambers coated with Matrigel. […] Cells that stained positive for β-galactosidase expression were counted, and the mean of triplicate assays for each experimental condition was used as % relative invasion. […]

Experiment [2] has as its system parental MDA-MB-435 cells. Description: Chemotactic migration assay (Transwell without Matrigel), parental MDA-MB-435. Particulars: transient transfection; conditioned media present, no Matrigel. The method, then: as §1
Increased cell migration was intimately linked with carcinoma invasion. […]
as §2

Experiment [3] relates to Clone A colon cancer cell line. The experiment is described as follows: Matrigel chemoinvasion assay, Clone A cells. The note with it: transient transfection.
Experimental: Invasion assays were performed using standard methods (see Shaw et al., Cell 91:949-960, 1997) using Transwell chambers coated with Matrigel. Briefly, cells were co-transfected with the indicated NFAT constructs, 1 μg EGFP-N1 (Clontech) and 1 μg pCS2-(n)β-Gal, a •gal expression vector (Dave Turner, University of Michigan) using the Lipofectamine procedure (Life Technologies), and after twenty-four hours, the cells were resuspended in serum-free medium containing 0.1% bovine serum albumin (BSA) and added to each well. […] Cells that stained positive for β-galactosidase expression were counted, and the mean of triplicate assays for each experimental condition was used as % relative invasion.

B1: wild-type NFAT-1: wild-type NFAT-1 tagged with the HA epitope, transiently overexpressed (protein)
chain: MNAPERQPQPDGGDAPGHEPGGSPQDELDFSILFDYEYLNPNEEEPNAHKVASPPSGPAYPDDVMDYGLKPYSPLASLSGEPPGRFGEPDRVGPQKFLSAAKPAGASGLSPRIEITPSHELIQAVGPLRMRDAGLLVEQPPLAGVAASPRFTLPVPGFEGYREPLCLSPASSGSSASFISDTFSPYTSPCVSPNNGGPDDLCPQFQNIPAHYSPRTSPIMSPRTSLAEDSCLGRHSPVPRPASRSSSPGAKRRHSCAEALVALPPGASPQRSRSPSPQPSSHVAPQDHGSPAGYPPVAGSAVIMDALNSLATDSPCGIPPKMWKTSPDPSPVSAAPSKAGLPRHIYPAVEFLGPCEQGERRNSAPESILLVPPTWPKPLVPAIPICSIPVTASLPPLEWPLSSQSGSYELRIEVQPKPHHRAHYETEGSRGAVKAPTGGHPVVQLHGYMENKPLGLQIFIGTADERILKPHAFYQVHRITGKTVTTTSYEKIVGNTKVLEIPLEPKNNMRATIDCAGILKLRNADIELRKGETDIGRKNTRVRLVFRVHIPESSGRIVSLQTASNPIECSQRSAHELPMVERQDTDSCLVYGGQQMILTGQNFTSESKVVFTEKTTDGQQIWEMEATVDKDKSQPNMLFVEIPEYRNKHIRTPVKVNFYVINGKRKRSQPQHFTYHPVPAIKTEPTDEYDPTLICSPTHGGLGSQPYYPQHPMVAESPSCLVATMAPCQQFRTGLSSPDARYQQQNPAAVLYQRSKSLSPSLLGYQQPALMAAPLSLADAHRSVLVHAGSQGQSSALLHPSPTNQQASPVIHYSPTNQQLRCGSHQEFQHIMYCENFAPGTTRPGPPPVSQGQRLSPGSYPTVIQQQNATSQRAAKNGPPVSDQKEVLPAGVTIKQEQNLDQTYLDDELIDTHLSWIQNIL
For the molecule B1, in experiment [1], the carcinoma invasion entry is listed as “also induced carcinoma invasion”. Moreover, the chemotactic migration result in experiment [2] is “sufficient to increase chemotactic migration”.

B2: wild-type NFAT-5: wild-type NFAT-5 tagged with the myc epitope, transiently overexpressed (protein)
chain: MSQTSGGEAGSPPPAVVAADASSAPSSSSMGGACSSFTTSSSPTIYSTSVTDSKAMQVESCSSAVGVSNRGVSEKQLTSNTVQQHPSTPKRHTVLYISPPPEDLLDNSRMSCQDEGCGLESEQSCSMWMEDSPSNFSNMSTSSYNDNTEVPRKSRKRNPKQRPGVKRRDCEESNMDIFDADSAKAPHYVLSQLTTDNKGNSKAGNGTLENQKGTGVKKSPMLCGQYPVKSEGKELKIVVQPETQHRARYLTEGSRGSVKDRTQQGFPTVKLEGHNEPVVLQVFVGNDSGRVKPHGFYQACRVTGRNTTPCKEVDIEGTTVIEVGLDPSNNMTLAVDCVGILKLRNADVEARIGIAGSKKKSTRARLVFRVNIMRKDGSTLTLQTPSSPILCTQPAGVPEILKKSLHSCSVKGEEEVFLIGKNFLKGTKVIFQENVSDENSWKSEAEIDMELFHQNHLIVKVPPYHDQHITLPVSVGIYVVTNAGRSHDVQPFTYTPDPAAAGALNVNVKKEISSPARPCSFEEAMKAMKTTGCNLDKVNIIPNALMTPLIPSSMIKSEDVTPMEVTAEKRSSTIFKTTKSVGSTQQTLENISNIAGNGSFSSPSSSHLPSENEKQQQIQPKAYNPETLTTIQTQDISQPGTFPAVSASSQLPNSDALLQQATQFQTRETQSREILQSDGTVVNLSQLTEASQQQQQSPLQEQAQTLQQQISSNIFPSPNSVSQLQNTIQQLQAGSFTGSTASGSSGSVDLVQQVLEAQQQLSSVLFSAPDGNENVQEQLSADIFQQVSQIQSGVSPGMFSSTEPTVHTRPDNLLPGRAESVHPQSENTLSNQQQQQQQQQQVMESSAAMVMEMQQSICQAAAQIQSELFPSTASANGNLQQSPVYQQTSHMMSALSTNEDMQMQCELFSSPPAVSGNETSTTTTQQVATPGTTMFQTSSSGDGEETGTQAKQIQNSVFQTMVQMQHSGDNQPQVNLFSSTKSMMSVQNSGTQQQGNGLFQQGNEMMSLQSGNFLQQSSHSQAQLFHPQNPIADAQNLSQETQGSLFHSPNPIVHSQTSTTSSEQMQPPMFHSQSTIAVLQGSSVPQDQQSTNIFLSQSPMNNLQTNTVAQEAFFAAPNSISPLQSTSNSEQQAAFQQQAPISHIQTPMLSQEQAQPPQQGLFQPQVALGSLPPNPMPQSQQGTMFQSQHSIVAMQSNSPSQEQQQQQQQQQQQQQQQQQSILFSNQNTMATMASPKQPPPNMIFNPNQNPMANQEQQNQSIFHQQSNMAPMNQEQQPMQFQSQSTVSSLQNPGPTQSESSQTPLFHSSPQIQLVQGSPSSQEQQVTLFLSPASMSALQTSINQQDMQQSPLYSPQNNMPGIQGATSSPQPQATLFHNTAGGTMNQLQNSPGSSQQTSGMFLFGIQNNCSQLLTSGPATLPDQLMAISQPGQPQNEGQPPVTTLLSQQMPENSPLASSINTNQNIEKIDLLVSLQNQGNNLTGSF
For B2, the carcinoma invasion entry in experiment [1] was “this was not observed”. For the same molecule, the chemotactic migration result in experiment [2] is listed as “sufficient to increase chemotactic migration”.

B3: DBD5: NFAT-5 dominant negative mutant comprising amino acids 175-471 (SEQ ID NO:14) of NFAT5a (protein, listed as Homo sapiens)
chain: GNGTLENQKGTGVKKSPMLCGQYPVKSEGKELKIVVQPETQHRARYLTEGSRGSVKDRTQQGFPTVKLEGHNEPVVLQVFVGNDSGRVKPHGFYQACRVTGRNTTPCKEVDIEGTTVIEVGLDPSNNMTLAVDCVGILKLRNADVEARIGIAGSKKKSTRARLVFRVNIMRKDGSTLTLQTPSSPILCTQPAGVPEILKKSLHSCSVKGEEEVFLIGKNFLKGTKVIFQENVSDENSWKSEAEIDMELFHQNHLIVKVPPYHDQHITLPVSVGIYVVTNAGRSHDVQPFTYTPDPAA
For B3, in experiment [3], the “carcinoma invasion (relative invasion vs vector alone)” value is “also inhibited invasion”.
